# Measured values from the Human Domainome abundance scans (Beltran et al. 2025).
# ± gives the uncertainty stated by the source.
# B1: Zinc finger MYM-type protein 2, residues 463 to 506; numbered along this chain, Q9UBW7 (parent)
# chain: IMNCCEQCGEYLPSKGAGNNVLVIDGQQKRFCCQSCVSEYKQVG
# Variants of: B1
# Experiment: abundance fitness (aPCA) (normalised: wild type 0, dead -1); higher = more abundant; growth selection in yeast, the domain comes from the species named
# Settings: Homo sapiens
row,Variant,abundance fitness
1,C5L,-0.922 ± 0.12
2,Y40N,-0.309 ± 0.39
3,N20G,-0.119 ± 0.082
4,C33G,-0.023 ± 0.069
5,K41A,-0.096 ± 0.086
6,G26M,-0.384 ± 0.15
7,K15P,0.189 ± 0.096
8,K41L,-0.122 ± 0.11
9,Q42R,0.063 ± 0.072
10,M2C,-0.286 ± 0.13
11,K29E,-0.231 ± 0.14
12,G9F,-0.001 ± 0.17
13,I1G,-0.15 ± 0.089
14,D25V,-0.51 ± 0.094
15,C8L,-1.05 ± 0.11
16,E6P,-0.253 ± 0.085
17,Q42M,-0.119 ± 0.17
18,I24R,-0.085 ± 0.077
19,K41G,0.042 ± 0.09
20,A17P,-0.274 ± 0.11
21,C8A,-0.505 ± 0.083
22,S14M,-0.361 ± 0.12
23,I24Q,-0.177 ± 0.2
24,E6V,-0.256 ± 0.1

row,Variant,abundance fitness
1,A17D,0.012 ± 0.15
2,S14K,-0.283 ± 0.16
3,G44V,-0.144 ± 0.11
4,M2T,-0.059 ± 0.097
5,S38A,0.019 ± 0.082
6,C5A,-0.65 ± 0.09
7,Q34L,-0.223 ± 0.097
8,S38Q,-0.01 ± 0.16
9,C32F,-0.653 ± 0.36
10,S14T,-0.09 ± 0.12
11,G26I,-0.296 ± 0.25
12,G9L,-0.289 ± 0.1
13,Q27P,-0.218 ± 0.12
14,K41M,-0.059 ± 0.12
15,S14F,-0.548 ± 0.18
16,G16C,-0.113 ± 0.085
17,K15G,0.103 ± 0.075
18,C5K,-0.38 ± 0.16
19,C33A,-0.017 ± 0.093
20,L12W,-0.467 ± 0.089
21,G26E,-0.077 ± 0.098
22,L22Y,0.165 ± 0.14
23,Y11R,0.219 ± 0.074
24,L22G,-0.132 ± 0.068

row,Variant,abundance fitness
1,C4D,-0.007 ± 0.12
2,E6F,-0.229 ± 0.22
3,E6R,-0.369 ± 0.082
4,C36H,-0.341 ± 0.3
5,Y40R,-0.037 ± 0.07
6,V21K,0.395 ± 0.35
7,R30Q,0.193 ± 0.085
8,Q28V,-0.169 ± 0.099
9,M2D,-0.049 ± 0.15
10,C36P,-0.168 ± 0.22
11,E39S,0.054 ± 0.1
12,Y40I,-0.249 ± 0.14
13,S35R,0.085 ± 0.072
14,C8V,-0.712 ± 0.077
15,A17K,-0.521 ± 0.16
16,P13K,-0.678 ± 0.45
17,N19R,-0.249 ± 0.087
18,E39A,0.09 ± 0.076
19,R30H,-0.464 ± 0.34
20,G9R,-0.436 ± 0.076
21,V21Q,-0.172 ± 0.13
22,Q34P,-0.033 ± 0.11
23,K29N,-0.464 ± 0.21
24,C32P,-0.454 ± 0.1

row,Variant,abundance fitness
1,S35H,-0.091 ± 0.2
2,N20L,-0.103 ± 0.1
3,K29F,-0.17 ± 0.089
4,C8E,-0.307 ± 0.097
5,C4Y,-0.45 ± 0.17
6,I1E,-0.012 ± 0.14
7,S14Q,-0.123 ± 0.12
8,C4N,0.214 ± 0.24
9,L22D,0.001 ± 0.17
10,V21A,-0.065 ± 0.098
11,I24F,0.052 ± 0.18
12,F31G,-0.185 ± 0.087
13,C36F,-0.665 ± 0.16
14,A17H,-0.337 ± 0.15
15,Q27E,-0.1 ± 0.11
16,G9W,-0.442 ± 0.083
17,C8G,-0.391 ± 0.082
18,L12T,-0.28 ± 0.097
19,S38K,-0.025 ± 0.11
20,Q27R,-0.206 ± 0.091
21,Q27C,-0.084 ± 0.17
22,C4P,-0.126 ± 0.086
23,D25W,-0.618 ± 0.21
24,N19Q,-0.107 ± 0.12

row,Variant,abundance fitness
1,I24W,-0.05 ± 0.083
2,V23N,-0.123 ± 0.1
3,K29L,-0.067 ± 0.085
4,E10K,-0.068 ± 0.15
5,K29Y,-0.026 ± 0.15
6,V43T,-0.026 ± 0.13
7,Q34Y,-0.615 ± 0.47
8,C32G,-0.313 ± 0.067
9,G16R,-0.562 ± 0.078
10,C36N,-0.273 ± 0.34
11,C33R,-0.121 ± 0.089
12,N19W,-0.212 ± 0.11
13,E39W,-0.478 ± 0.098
14,V23M,0.18 ± 0.11
15,N3G,-0.119 ± 0.076
16,G18L,-0.432 ± 0.17
17,S38W,-0.197 ± 0.092
18,Q7M,-0.152 ± 0.1
19,Y40D,-0.057 ± 0.18
20,E6D,0.071 ± 0.13
21,E6A,-0.197 ± 0.082
22,M2Q,-0.141 ± 0.24
23,Q28A,-0.133 ± 0.086
24,R30Y,-0.354 ± 0.41

row,Variant,abundance fitness
1,C4H,0.019 ± 0.18
2,D25L,-0.455 ± 0.13
3,E6Y,-0.267 ± 0.17
4,V43L,-0.222 ± 0.15
5,V43P,0.144 ± 0.22
6,S35A,-0.072 ± 0.074
7,C4T,-0.021 ± 0.085
8,V23I,0.031 ± 0.12
9,G26S,-0.065 ± 0.096
10,N3P,-0.345 ± 0.084
11,K15H,0.119 ± 0.15
12,M2G,-0.148 ± 0.074
13,M2S,0.073 ± 0.087
14,F31H,-0.273 ± 0.16
15,R30K,0.216 ± 0.17
16,N3V,-0.366 ± 0.1
17,Y11E,0.296 ± 0.091
18,V23S,0.025 ± 0.12
19,V43H,-0.361 ± 0.34
20,E39Q,-0.144 ± 0.2
21,S35V,-0.092 ± 0.1
22,Y11S,0.252 ± 0.099
23,Q27L,-0.045 ± 0.097
24,G44C,-0.157 ± 0.11

row,Variant,abundance fitness
1,C36I,0.163 ± 0.3
2,D25C,-0.25 ± 0.12
3,D25E,-0.11 ± 0.085
4,C5E,-0.377 ± 0.11
5,R30M,0.068 ± 0.091
6,A17T,-0.309 ± 0.33
7,Q28C,-0.47 ± 0.15
8,K41D,0.193 ± 0.12
9,P13R,-0.515 ± 0.16
10,E6W,-0.375 ± 0.09
11,V23G,-0.107 ± 0.076
12,Q28Y,-0.305 ± 0.16
13,C5V,-0.884 ± 0.094
14,S35K,0.156 ± 0.1
15,G16Q,0.07 ± 0.1
16,R30D,0.165 ± 0.12
17,L12D,-0.174 ± 0.11
18,V43S,-0.159 ± 0.16
19,R30C,0.262 ± 0.17
20,Y40K,-0.057 ± 0.18
21,S14C,-0.072 ± 0.16
22,V23D,-0.017 ± 0.1
23,V37G,-0.226 ± 0.075
